# B1: TAT-CPP32: HIS-TAT-PTD-HIV2-large subunit of CPP32-HIV1-small subunit of CPP32 fusion protein (protein)
# chain: GRKKRRQRRRGYPYDVPDYACTERQANFLGKIWPGISLDNSYKMDYPEMGLCIIINNKNFHKSTGMTSRSGTDVDAANLRETFRNLKYEVRNKNDLTREEIVELMRDVSKEDHSKRSSFVCVLLSHGEEGIIFGTNGPVDLKKITNFFRGDRCRSLTGKPKLFIIQACRGTELDCGIETSQVSQNYPIVQNLQGVDDDMACHKIPVEADFLYAYSTAPGYYSWRNSKDGSWFIQSLCAMLKQYADKLEFMHILTRVNRKVATEFESFSFDATFHAKKQIPCIVSMLTKELYFYH
# modifications: left off: small tags and cut ends
# notes: HIS-TAT-PTD-HIV2-large subunit of CPP32-HIV1-small subunit of CPP32 fusion protein
# Columns and labels:
# Type in all cases: cell-based
# [1] = tested on: Jurkat T cells; test: Co-transduction of uninfected Jurkat T cells with TAT-CPP32 and TAT-Protease, survival by trypan-blue exclusionary dye microscopy; conditions: 50-100 nM, uninfected Jurkat T cells, 18 hr post-addition
# Experimental: To test for activation of the TAT-CPP32 by TAT-Protease, 2×10^6 Jurkat T cells were placed in 2 ml of culture (RPMI media). To these cells, various combinations of control and experimental transducible proteins were added in 50-100 nM ranges, as follows:
# The cells were assayed for survival at 18 hr post-addition by trypan-blue exclusionary dye microscopy. […] Thus, activation of TAT-CPP32 requires the presence of HIV protease.
# [2] = tested on: HIV-infected (NLHX strain) and uninfected Jurkat T-cells; test: FACS analysis of transduction and retention of fusion proteins in HIV-infected and uninfected Jurkat T-cells; conditions: about 35 to 45 nanomoler, about 30 minutes, HIV (NLHX) infected Jurkat culture
# Experimental: To see if p16 fusion proteins could remain in the cell cytosol of the HIV infected cells, the TAT-HIV1,2 p16 fusion proteins produced in Example 3 were purified and labeled with FITC as described above. About 35 to 45 nanomoler of the labeled fusion protein was then added to HIV-infected (NLHX strain) and uninfected Jurkat T-cells in accordance with Example 6 below. The transduced Jurkat T-cells were then analyzed by FACS. All (100%) of cells in a mixed population of HIV infected/uninfected cells were transduced with the p16 protein at 1, 2, 4, 8 and 16 hours post-addition of the FITC conjugated fusion protein. However, when the cells were washed in fresh media and the PTD has driven out of the cells due to the concentration gradient (now high inside and 0 outside), the infected cells retained the cleaved substrate (the p16 portion) but uninfected controls lost all of the transduced protein (it transduced out) as determined by the continued presence of FITC-labeled p16 as analyzed by FACS.
# About 5×10^6 Jurkat T-cells were infected by HIV (strain NLHX; about 1×10^5 to 1×10^6 infectious virus per ml). The cells were propagated in RPMI media. Approximately 4 to 7 days after the infection, the media was removed from the plates and about 35 to 45 nanomoler of the TAT-CPP32 fusion protein was added to the cells. […]
# [3] = tested on: Jurkat T-cells infected by HIV (strain NLHX); test: Killing of HIV-infected Jurkat T-cells, trypan blue exclusion and microscopy; conditions: about 18 hours post-transduction
# Experimental: About 5×10^6 Jurkat T-cells were infected by HIV (strain NLHX; about 1×10^5 to 1×10^6 infectious virus per ml). The cells were propagated in RPMI media. Approximately 4 to 7 days after the infection, the media was removed from the plates and about 35 to 45 nanomoler of the TAT-CPP32 fusion protein was added to the cells. The cells were incubated with the fusion proteins for about 30 minutes to allow transduction into the cells. […] Subsequently, media was added back to the plates and after about 18 hours post-transduction, the cells were examined for cell killing using conventional trypan blue exclusion and microscopy.
# Briefly, cells were infected and transduced as described in Example 6 above. Following the transduction, about 1 μg/ml Ritonavir was added to the cell media and allowed to incubate with the cells for about 18 hours. The cells were then assayed for cell killing by conventional trypan blue exclusion and microscopy. […]
molecule,measurement,setting,value
B1,cytotoxicity when added alone,[1],minimal cytotoxicity
same,loss of viable cells when added plus TAT-Protease,[1],substantial loss of viable cells
same,cells transduced by the fusion protein,[2],about 100%
same,killing of HIV-infected cells,[3]; about 35 to 45 nanomoler,about all of the infected cells were killed
same,killing of uninfected cells in the population,[3],does not kill
